Test results: patent publication US20040082509A1

Biological target: JNKs
Experiment: cell-based or functional assay

| Binder | phosphorylation of GST-jun (1-89) by JNKs pulled down from UV-irradiated HeLa or IL-1β treated βTC-3 cell extracts; peptide at 25 µM |
| --- | --- |
| GRKKRRQRRRPPDTYRPKRPTTLNLFPQVPRSQDT [L-TAT-IB1 peptide] | 25 µM |
| GRKKRRQRRRPPEEPHKHRPTTLRLTTLGAQDS [L-TAT-IB2 peptide] | 25 µM |
